{"source": "patent US20160136234A1", "assay_in_all_cases": "cell-based or functional assay", "key": {"[1]": {"target": "Mnk2 (h) (human) (UniProt Q9HBH9)"}, "[2]": {"target": "T1, eEF-2K (h) (human) (UniProt O00418)", "T1 sequence (looked up)": "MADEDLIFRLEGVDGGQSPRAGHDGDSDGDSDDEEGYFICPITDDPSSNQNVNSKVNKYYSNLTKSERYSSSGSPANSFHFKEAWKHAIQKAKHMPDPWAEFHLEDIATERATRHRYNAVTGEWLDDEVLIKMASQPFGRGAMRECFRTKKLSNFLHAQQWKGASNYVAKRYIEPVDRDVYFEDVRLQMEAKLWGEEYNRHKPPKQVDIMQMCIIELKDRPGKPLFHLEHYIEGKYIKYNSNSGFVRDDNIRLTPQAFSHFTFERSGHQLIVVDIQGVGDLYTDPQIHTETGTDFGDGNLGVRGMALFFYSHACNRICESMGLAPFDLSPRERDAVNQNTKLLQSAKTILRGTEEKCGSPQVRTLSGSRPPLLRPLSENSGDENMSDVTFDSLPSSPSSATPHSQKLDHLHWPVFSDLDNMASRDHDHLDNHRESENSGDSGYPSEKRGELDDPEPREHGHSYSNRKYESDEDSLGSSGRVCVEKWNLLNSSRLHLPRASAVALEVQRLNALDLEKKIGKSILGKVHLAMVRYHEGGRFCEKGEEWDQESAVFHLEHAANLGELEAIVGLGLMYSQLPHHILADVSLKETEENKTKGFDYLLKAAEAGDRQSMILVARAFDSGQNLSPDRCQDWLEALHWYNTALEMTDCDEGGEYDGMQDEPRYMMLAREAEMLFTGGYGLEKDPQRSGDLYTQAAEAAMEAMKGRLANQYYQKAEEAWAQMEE"}, "[3]": {"target": "T2, Itk (h) (human) (UniProt Q08881)", "T2 sequence (looked up)": "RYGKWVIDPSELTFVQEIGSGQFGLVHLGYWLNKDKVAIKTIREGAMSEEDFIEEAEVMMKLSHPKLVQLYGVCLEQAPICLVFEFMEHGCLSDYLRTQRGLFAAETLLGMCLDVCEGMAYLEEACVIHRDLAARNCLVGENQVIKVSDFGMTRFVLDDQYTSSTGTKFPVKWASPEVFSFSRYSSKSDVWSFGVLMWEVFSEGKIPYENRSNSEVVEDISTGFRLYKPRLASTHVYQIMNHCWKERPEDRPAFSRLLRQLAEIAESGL"}}, "data": [{"substance": "MMI-0300 (peptide)", "values": [{"measurement": "% activity at 100 µM", "setting": "[1]", "result": 89, "unit": "%"}, {"measurement": "% activity at 100 µM", "setting": "[2]", "result": 91, "unit": "%"}, {"measurement": "% activity at 100 µM", "setting": "[3]", "result": 77, "unit": "%"}]}]}
